{
  "source": "patent US20170157149A1",
  "about": "(REGENTS OF THE UNIVERSITY OF MICHIGAN, published 2017)",
  "target": "T1, scavenger receptor class BI (SR-BI) (UniProt Q8WTV0 1-552, limits assumed)",
  "T1 sequence (looked up)": "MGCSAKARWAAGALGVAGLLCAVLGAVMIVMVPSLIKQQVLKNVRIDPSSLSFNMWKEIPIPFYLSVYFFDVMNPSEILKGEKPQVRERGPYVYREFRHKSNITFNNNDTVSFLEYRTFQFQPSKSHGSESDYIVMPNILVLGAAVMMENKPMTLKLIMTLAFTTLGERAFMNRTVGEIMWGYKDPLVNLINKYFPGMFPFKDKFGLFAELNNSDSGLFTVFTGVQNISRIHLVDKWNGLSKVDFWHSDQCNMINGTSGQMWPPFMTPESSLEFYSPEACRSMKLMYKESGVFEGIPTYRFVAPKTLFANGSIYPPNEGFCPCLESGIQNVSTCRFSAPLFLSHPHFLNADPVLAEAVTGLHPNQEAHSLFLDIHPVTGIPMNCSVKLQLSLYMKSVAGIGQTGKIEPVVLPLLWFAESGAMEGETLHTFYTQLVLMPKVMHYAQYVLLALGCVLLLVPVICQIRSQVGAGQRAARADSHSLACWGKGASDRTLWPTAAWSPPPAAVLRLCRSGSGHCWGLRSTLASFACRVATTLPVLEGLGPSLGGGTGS",
  "test": "cell-based or functional assay",
  "note": "No end group written: not given here.",
  "data": [
    {"binder": "PVLDLFRELLNELLEALKQKLK (other, also: sHDL lipid nanoparticle with lipids, DIO tracer label in particle, acetate salt)", "note": "[DIO labeled HDL nanoparticles (synthetic HDL of 22 A peptide and lipids)]", "values": [
      {"measurement": "blocking of uptake of DIO labeled HDL nanoparticles by 10 fold excess of HDL (fluorescence microscopy)", "result": "> 90", "unit": "%"}
    ]}
  ]
}
